Test results reported in the Immune Epitope Database (IEDB).
pIC50, pKd: −log10 of the molar value.

How the values were obtained:
HLA-A*25:01 = experiment: IEDB peptide-MHC binding, purified MHC/direct/fluorescence; filed as Kd, often an IC50 or EC50 that approximates it; ≥ and ≤ were set here for values at or beyond the usual limits of such assays; conditions: source organism: West Nile virus strain PTRoxo
HLA-A*29:02 = experiment: as above; conditions: source organism: West Nile virus strain PTRoxo
HLA-A*30:01 = experiment: as above; conditions: source organism: West Nile virus strain PTRoxo
HLA-A*80:01 = experiment: as above
HLA-B*15:01 [1] = experiment: as above; conditions: source organism: West Nile virus strain PTRoxo
HLA-B*18:01 [2] = experiment: as above; conditions: source organism: West Nile virus strain PTRoxo
HLA-B*44:02 = experiment: as above; conditions: source organism: West Nile virus strain PTRoxo
HLA-B*51:01 = experiment: as above; conditions: source organism: West Nile virus
HLA-B*57:01 = experiment: as above; conditions: source organism: West Nile virus strain PTRoxo
HLA-B*58:01 = experiment: as above; conditions: source organism: West Nile virus strain PTRoxo
HLA-A*26:01 = experiment: IEDB peptide-MHC binding, purified MHC/competitive/fluorescence; filed as Kd, often an IC50 or EC50 that approximates it; ≥ and ≤ were set here for values at or beyond the usual limits of such assays
HLA-C*07:02 = experiment: IEDB peptide-MHC binding, purified MHC/direct/fluorescence; filed as Kd, often an IC50 or EC50 that approximates it; ≥ and ≤ were set here for values at or beyond the usual limits of such assays; conditions: source organism: Methylibium petroleiphilum PM1
HLA-C*15:02 = experiment: as above; conditions: source organism: Methylibium petroleiphilum PM1
HLA-B*15:02 = experiment: IEDB peptide-MHC binding, purified MHC/competitive/fluorescence; filed as Kd, often an IC50 or EC50 that approximates it; ≥ and ≤ were set here for values at or beyond the usual limits of such assays; conditions: source organism: Methylibium petroleiphilum PM1
HLA-B*15:42 = experiment: as above
HLA-B*27:20 = experiment: as above
HLA-B*40:13 = experiment: as above; conditions: source organism: Methylibium petroleiphilum PM1
HLA-B*45:06 = experiment: as above
HLA-B*83:01 = experiment: as above
HLA-C*06:02 [3] = experiment: as above; conditions: source organism: Methylibium petroleiphilum PM1
HLA-C*14:02 = experiment: as above; conditions: source organism: Methylibium petroleiphilum PM1
HLA-A*01:01 = experiment: as above; conditions: source organism: Human immunodeficiency virus 1
HLA-A*11:01 = experiment: as above; conditions: source organism: Human immunodeficiency virus 1
HLA-A*26:02 = experiment: as above; conditions: source organism: Human immunodeficiency virus 1
HLA-A*26:03 = experiment: as above; conditions: source organism: Human immunodeficiency virus 1
HLA-B*08:01 = experiment: as above; conditions: source organism: Human immunodeficiency virus 1
HLA-B*08:03 = experiment: as above; conditions: source organism: Human immunodeficiency virus 1
HLA-B*15:01 [4] = experiment: as above; conditions: source organism: Human immunodeficiency virus 1
HLA-B*15:09 = experiment: as above; conditions: source organism: Human immunodeficiency virus 1
HLA-B*18:01 [5] = experiment: as above; conditions: source organism: Human immunodeficiency virus 1
HLA-B*40:02 = experiment: IEDB peptide-MHC binding, cellular MHC/competitive/fluorescence; ≥ and ≤ were set here for values at or beyond the usual limits of such assays; conditions: source organism: Homo sapiens
HLA-A*24:02 = experiment: IEDB peptide-MHC binding, purified MHC/competitive/fluorescence; filed as Kd, often an IC50 or EC50 that approximates it; ≥ and ≤ were set here for values at or beyond the usual limits of such assays; conditions: source organism: Hepacivirus hominis
HLA-C*04:01 = experiment: IEDB peptide-MHC binding, purified MHC/direct/fluorescence; filed as Kd, often an IC50 or EC50 that approximates it; ≥ and ≤ were set here for values at or beyond the usual limits of such assays; conditions: source organism: Japanese encephalitis virus
HLA-B*27:05 = experiment: as above; conditions: source organism: Burkholderia mallei
HLA-B*48:01 = experiment: as above; conditions: source organism: Burkholderia mallei
HLA-B*73:01 = experiment: as above; conditions: source organism: Burkholderia mallei ATCC 23344
HLA-C*06:02 [6] = experiment: as above; conditions: source organism: human gammaherpesvirus 4
[7] = source organism: West Nile virus
[8] = source organism: Methylibium petroleiphilum PM1
[9] = source organism: Hepacivirus hominis
[10] = source organism: human gammaherpesvirus 4

With EIPDVLNSL the pKd (HLA-A*25:01) was 7.64, the pKd (HLA-A*29:02) was ≤ 4.70 and the pKd (HLA-A*30:01) was ≤ 4.70. For the same sequence, the pKd (HLA-A*80:01; source organism: West Nile virus strain PTRoxo) was ≤ 4.70, the pKd (HLA-B*15:01 [1]) was ≤ 4.70 and the pKd (HLA-B*18:01 [2]) was ≤ 4.70. The pKd (HLA-B*44:02) was ≤ 4.70, the pKd (HLA-B*51:01) was ≤ 4.70 and the pKd (HLA-B*57:01) was ≤ 4.70. For the same sequence, the pKd (HLA-B*58:01) was ≤ 4.70 and the pKd (HLA-A*26:01; [7]) was 6.56.

FQMGGIGPM gave a pKd (HLA-C*07:02) of 6.35, a pKd (HLA-C*15:02) of 5.66 and a pKd (HLA-B*15:02) of 7.84. The pKd (HLA-B*15:42; [8]) was ≤ 5.30, the pKd (HLA-B*27:20; [8]) was 9.52 and the pKd (HLA-B*40:13) was 8.06. The pKd (HLA-B*45:06; [8]) was ≤ 5.30, the pKd (HLA-B*83:01; [8]) was ≤ 5.30 and the pKd (HLA-C*06:02 [3]) was 6.29. The pKd (HLA-C*14:02) was 7.88.

GTEEIKSLY was tested, and the pKd (HLA-A*01:01) was 7.86, the pKd (HLA-A*11:01) was ≤ 4.70 and the pKd (HLA-A*26:01; source organism: Human immunodeficiency virus 1) was 5.80. The pKd (HLA-A*26:02) was 5.92, the pKd (HLA-A*26:03) was ≤ 4.70 and the pKd (HLA-B*08:01) was ≤ 4.70. For the same sequence, the pKd (HLA-B*08:03) was ≤ 4.70, the pKd (HLA-B*15:01 [4]) was ≤ 4.70 and the pKd (HLA-B*15:09) was ≤ 4.70. For the same sequence, the pKd (HLA-B*18:01 [5]) was 7.11.

KEQSPEPHL was tested, and the pIC50 (HLA-B*40:02) was 5.72.

For LLPRRGPRL, the pKd (HLA-A*24:02) was 7.05, the pKd (HLA-B*15:42; [9]) was ≤ 5.30 and the pKd (HLA-B*45:06; [9]) was ≤ 5.30. The pKd (HLA-B*83:01; [9]) was ≤ 5.30.

QTDNQLAVF was tested, and the pKd (HLA-A*80:01; [7]) was ≤ 4.70 and the pKd (HLA-C*04:01) was ≤ 4.70.

With RRHGMAWRQ the pKd (HLA-B*27:05) was 6.67, the pKd (HLA-B*48:01) was ≤ 4.70 and the pKd (HLA-B*73:01) was 4.92.

With RRRKGWIPL the pKd (HLA-C*06:02 [6]) was ≤ 4.70, the pKd (HLA-B*15:42; [10]) was ≤ 5.30 and the pKd (HLA-B*27:20; [10]) was 9.70. The pKd (HLA-B*45:06; [10]) was ≤ 5.30 and the pKd (HLA-B*83:01; [10]) was ≤ 5.30.
